Targets include histone H4 (X. laevis, UniProt P62799); histone H2B (X. laevis, UniProt P02281); TFIIH subunit XPB (human, UniProt P19447 1-782).
Holding throughout (test): cryo-EM structure

The source of these data is publication PMC10237034 (Molecular Cell, 2023).

Sequence of TFIIH subunit XPB (P19447 whole entry): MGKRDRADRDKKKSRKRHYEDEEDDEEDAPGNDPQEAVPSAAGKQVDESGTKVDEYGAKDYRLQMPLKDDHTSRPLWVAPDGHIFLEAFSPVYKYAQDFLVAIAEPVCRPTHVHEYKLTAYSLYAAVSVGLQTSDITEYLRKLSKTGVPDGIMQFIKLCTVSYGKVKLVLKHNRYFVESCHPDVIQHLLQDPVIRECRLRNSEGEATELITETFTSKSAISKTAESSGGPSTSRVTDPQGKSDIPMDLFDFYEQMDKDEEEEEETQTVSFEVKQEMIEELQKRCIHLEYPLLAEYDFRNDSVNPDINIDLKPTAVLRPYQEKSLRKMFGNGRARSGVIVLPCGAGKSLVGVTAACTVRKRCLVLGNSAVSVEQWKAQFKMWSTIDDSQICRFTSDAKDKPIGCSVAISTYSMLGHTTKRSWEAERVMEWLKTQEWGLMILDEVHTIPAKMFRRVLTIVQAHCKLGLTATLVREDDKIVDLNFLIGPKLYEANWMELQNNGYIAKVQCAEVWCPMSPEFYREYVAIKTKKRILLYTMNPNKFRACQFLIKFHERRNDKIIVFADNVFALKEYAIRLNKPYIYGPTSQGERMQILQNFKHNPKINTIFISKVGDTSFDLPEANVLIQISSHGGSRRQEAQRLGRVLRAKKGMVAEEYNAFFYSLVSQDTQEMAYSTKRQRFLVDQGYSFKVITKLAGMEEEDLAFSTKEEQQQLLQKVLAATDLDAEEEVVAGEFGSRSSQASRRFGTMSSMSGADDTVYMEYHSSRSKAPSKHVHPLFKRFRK

B1: TFIIH subunit p8 (natural protein)
chain: MVNVLKGVLIECDPAMKQFLLYLDESNALGKKFIIQDIDDTHVFVIAELVNVLQERVGELMDQNAFSLTQK
On to B1, for which the binding result with histone H4 and with histone H2B was “binds” in each case.

B2: TFIIH subunit MAT1 (natural protein)
chain: MDDQGCPRCKTTKYRNPSLKLMVNVCGHTLCESCVDLLFVRGAGNCPECGTPLRKSNFRVQLFEDPTVDKEVEIRKKVLKIYNKREEDFPSLREYNDFLEEVEEIVFNLTNNVDLDNTKKKMEIYQKENKDVIQKNKLKLTREQEELEEALEVERQENEQRRLFIQKEEQLQQILKRKNKQAFLDELESSDLPVALLLAQHKDRSTQLEMQLEKPKPVKPVTFSTGIKMGQHISLAPIHKLEEALYEYQPLQIETYGPHVPELEMLGRLGYLNHVRAASPQDLAGGYTSSLACHRALQDAFSGLFWQPS
As for B2, the binding result with TFIIH subunit XPB is “binds”.
